This is an account of results in PMC5896254.

The target of experiment [1] is RAB11A (endogenous, HeLa) (UniProt P62491). The experiment is described as follows: GFP-TRAP pull-down, quantified immunoblot. The note with it: HeLa cells starved for 2 hr; n = 5; parent: est. 1.0; read off a plot.
The target of a further experiment is WIPI2 (endogenous, HeLa). Put plainly: GFP-TRAP pull-down, quantified immunoblot. To be noted: HeLa cells starved for 1 hr; n = 3; parent: est. 0.10; read off a plot. (Immunoblotting shows a protein as a band on a membrane.)
Experiment [2] has as its target T1, recombinant human HIS-RAB11A, P62491.
T1 chain: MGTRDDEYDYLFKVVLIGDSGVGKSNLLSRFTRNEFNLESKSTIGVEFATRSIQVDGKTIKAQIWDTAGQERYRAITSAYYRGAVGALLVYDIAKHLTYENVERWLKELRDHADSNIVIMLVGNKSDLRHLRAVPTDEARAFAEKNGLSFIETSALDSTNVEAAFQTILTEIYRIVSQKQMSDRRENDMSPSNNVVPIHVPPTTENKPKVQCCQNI
The experiment is described as follows: liposome sedimentation assay. To be noted: chain shown with the change; in vitro; RAB11A-containing liposomes; n = 4; parent: est. 100; read off a plot.

On to GFP-WIPI2 L115A; E116T, for which, in experiment [1], the response came to 0.42 au.

With GFP-RAB11A (from UniProt P62491) Q70L, the response with WIPI2 (endogenous, HeLa) was 0.15 au.

GFP-RAB11A (from UniProt P62491) S25N: the response with WIPI2 (endogenous, HeLa) was determined as 0.045 au.

Regarding GFP-WIPI2 Y120F; I121E, in experiment [1], the response stood at 0.1 au.

B1: WIPI2-FLAG WT R224T; R225T (protein)
chain: MNLASQSGEAGAGQLLFANFNQDNTSLAVGSKSGYKFFSLSSVDKLEQIYECTDTEDVCIVERLFSSSLVAIVSLKAPRKLKVCHFKKGTEICNYSYSNTILAVKLNRQRLIVCLEESLYIHNIRDMKVLHTIRETPPNPAGLCALSINNDNCYLAYPGSATIGEVQVFDTINLRAANMIPAHDSPLAALAFDASGTKLATASEKGTVIRVFSIPEGQKLFEFTTGVKRCVSICSLAFSMDGMFLSASSNTETVHIFKLETVKEKPPEEPTTWTGYFGKVLMASTSYLPSQVTEMFNQGRAFATVRLPFCGHKNICSLATIQKIPRLLVGAADGYLYMYNLDPQEGGECALMKQHRLDGSLETTNEILDSASHDCPLVTQTYGAAAGKGTYVPSSPTRLAYTDDLGAVGGACLEDEASALRLDEDSEHPPMILRTD
Turning to B1, the percent of parent in experiment [2] is 92 % WT.

B2: WIPI2-FLAG WT L115A; E116T (protein)
chain: MNLASQSGEAGAGQLLFANFNQDNTSLAVGSKSGYKFFSLSSVDKLEQIYECTDTEDVCIVERLFSSSLVAIVSLKAPRKLKVCHFKKGTEICNYSYSNTILAVKLNRQRLIVCATESLYIHNIRDMKVLHTIRETPPNPAGLCALSINNDNCYLAYPGSATIGEVQVFDTINLRAANMIPAHDSPLAALAFDASGTKLATASEKGTVIRVFSIPEGQKLFEFRRGVKRCVSICSLAFSMDGMFLSASSNTETVHIFKLETVKEKPPEEPTTWTGYFGKVLMASTSYLPSQVTEMFNQGRAFATVRLPFCGHKNICSLATIQKIPRLLVGAADGYLYMYNLDPQEGGECALMKQHRLDGSLETTNEILDSASHDCPLVTQTYGAAAGKGTYVPSSPTRLAYTDDLGAVGGACLEDEASALRLDEDSEHPPMILRTD
In the case of B2, the percent of parent in experiment [2] turned out to be 43 % WT.

B3: WIPI2-FLAG WT Y120F; I121E (protein)
chain: MNLASQSGEAGAGQLLFANFNQDNTSLAVGSKSGYKFFSLSSVDKLEQIYECTDTEDVCIVERLFSSSLVAIVSLKAPRKLKVCHFKKGTEICNYSYSNTILAVKLNRQRLIVCLEESLFEHNIRDMKVLHTIRETPPNPAGLCALSINNDNCYLAYPGSATIGEVQVFDTINLRAANMIPAHDSPLAALAFDASGTKLATASEKGTVIRVFSIPEGQKLFEFRRGVKRCVSICSLAFSMDGMFLSASSNTETVHIFKLETVKEKPPEEPTTWTGYFGKVLMASTSYLPSQVTEMFNQGRAFATVRLPFCGHKNICSLATIQKIPRLLVGAADGYLYMYNLDPQEGGECALMKQHRLDGSLETTNEILDSASHDCPLVTQTYGAAAGKGTYVPSSPTRLAYTDDLGAVGGACLEDEASALRLDEDSEHPPMILRTD
In the case of B3, the percent of parent in experiment [2] turned out to be 38 % WT.
